Reference: publication doi:10.1101/172908 (bioRxiv, 2017)

Molecular target: the molecule itself
Assay: cryo-EM structure

B1: rat Kir6.2 (natural protein)
chain: MLSRKGIIPEEYVLTRLAEDPTEPRYRTRERRARFVSKKGNCNVAHKNIREQGRFLQDVFTTLVDLKWPHTLLIFTMSFLCSWLLFAMVWWLIAFAHGDLAPGEGTNVPCVTSIHSFSSAFLFSIEVQVTIGFGGRMVTEECPLAILILIVQNIVGLMINAIMLGCIFMKTAQAHRRAETLIFSKHAVITLRHGRLCFMLRVGDLRKSMIISATIHMQVVRKTTSPEGEVVPLHQVDIPMENGVGGNSIFLVAPLIIYHVIDSNSPLYDLAPSDLHHHQDLEIIVILEGVVETTGITTQARTSYLADEILWGQRFVPIVAEEDGRYSVDYSKFGNTVKVPTPLCTARQLDEDRSLLDALTLASSRGPLRKRSVAVAKAKPKFSISPDSLS
B1 was tested, and the “stoichiometry N” value was 4.
